Results: article PMC8585765, “An OsKala3, R2R3 MYB TF, Is a Common Key Player for Black Rice Pericarp as Main Partner of an OsKala4, bHLH TF” (Frontiers in Plant Science, 2021)

Biological target: T1, OsKala4 (rice (Oryza sativa), UniProt Q948Y2 1-451)
T1 sequence (looked up): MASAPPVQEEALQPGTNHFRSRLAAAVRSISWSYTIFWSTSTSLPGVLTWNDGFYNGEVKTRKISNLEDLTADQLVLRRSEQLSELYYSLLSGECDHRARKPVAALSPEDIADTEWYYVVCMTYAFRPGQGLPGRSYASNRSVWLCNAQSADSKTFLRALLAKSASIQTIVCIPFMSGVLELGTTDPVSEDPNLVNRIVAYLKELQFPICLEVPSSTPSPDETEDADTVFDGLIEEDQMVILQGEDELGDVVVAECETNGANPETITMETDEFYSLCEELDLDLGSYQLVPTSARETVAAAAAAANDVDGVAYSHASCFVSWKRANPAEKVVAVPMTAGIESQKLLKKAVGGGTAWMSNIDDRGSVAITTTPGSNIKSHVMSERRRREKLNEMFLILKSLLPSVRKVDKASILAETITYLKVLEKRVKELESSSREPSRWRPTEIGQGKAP
Experiment: cell-based or functional assay

B1: OsKala3 (natural protein, rice (Oryza sativa), UniProt O23891 1-321, looked up)
chain: MGRKPCCSKEGLNRGAWTAMEDDILVSYIAKHGEGKWGALPKRAGLKRCGKSCRLRWLNYLRPGIKRGNISGDEEELILRLHTLLGNRWSLIAGRLPGRTDNEIKNYWNSTLSKRVAMQRTAAATSMPAAATTSSNADAAGAAARRRRSPEPRTVVVSPIRTKALRCNNNSSSGIVVVQQAGACSHGGRPPESGAPGDAAADKVATPQAVQQQQQQELAGAEDDDDLPVPAVCIDLDLDDIELGGLDGFLISPWRGGGHDDGNAAAGAVPNLPMPIGYKLGGAGGGGEAGAVDLEALLGQLEAEEDDDGDHHHHHHHHHHQ
**Q.** With B1 as the binder, how does the “dual-luciferase reporter assay in transiently transfected rice protoplasts; proOsCHI:LUC reporter; co-transfection of OsKala3 and OsKala4 compared to OsKala3 alone” value read?
**A.** Its value is 4 fold.
